Data: patent publication US20170305994A1 (Novo Nordisk, published 2017)
Like-named read-outs stand apart in the source and are kept apart here.

T1: human DR3 (full length, on cells) (human, UniProt Q93038 25-417)
T1 sequence: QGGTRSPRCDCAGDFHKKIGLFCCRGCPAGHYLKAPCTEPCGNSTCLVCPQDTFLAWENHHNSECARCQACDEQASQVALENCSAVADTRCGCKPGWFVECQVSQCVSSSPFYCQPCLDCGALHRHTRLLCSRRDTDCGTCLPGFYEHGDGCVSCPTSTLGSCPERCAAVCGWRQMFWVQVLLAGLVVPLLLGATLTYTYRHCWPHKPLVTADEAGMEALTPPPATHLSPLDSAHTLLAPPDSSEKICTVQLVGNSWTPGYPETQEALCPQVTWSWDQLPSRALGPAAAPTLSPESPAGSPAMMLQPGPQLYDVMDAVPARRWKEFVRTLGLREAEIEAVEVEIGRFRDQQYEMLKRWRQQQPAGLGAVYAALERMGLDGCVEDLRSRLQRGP


Tests used:
[1] = biological target: T1, human DR3 (full length, on cells); experiment: cell-based or functional assay
[2] = biological target: T1, human DR3 (full length, on cells); experiment: flow cytometry on IL-12/IL-18/TL1A activated CD4+ T cells, 1 µg/ml
Experimental: (§1) Buffy Coats were obtained from normal healthy volunteers from Copenhagen University Hospital. CD4+ T cells were isolated through magnetic bead separation. Cells were activated with 2 ng/ml IL-12, 50 ng/ml IL-18 and 100 ng/ml TL1A (Flag-HIS-TEV-TL1A-produced at Novo Nordisk A/S) and cultured for 5 days. On day 5 cells were stained with 10, 5, 1, 0.5, 0.1 or 0.0001 μg/ml of the anti-DR3 mAb clones 0072, 0073, or 0077, or with Fab fragment clones 0087, 0088 and 0091. A secondary PE conjugated goat-anti-mouse (H+L) was used for detection.
The greater observed MFI values of IgG treated compared with Fab treated cells was expected since the secondary (detecting) antibody (anti-IgG heavy and light chain) bound to both Fab and Fc parts of the full-length IgG antibody clones, but only to Fab parts of Fab clones (Table 9).

[3] = biological target: T1, human DR3 (full length, on cells); experiment: as above; remark: listed apart in the source
Experimental: as §1
as §1, with “Material and Methods: Buffy” for “Buffy”, “Copenhagen” for “Copenhagen University”, “0088 or” for “0088 and”, “detection. Samples were in duplicate. Staining intensity was evaluated by FACS.” for “detection.”

[4] = biological target: T1, human DR3 (full length, on cells); experiment: cell-based or functional assay; remark: listed apart in the source
[5] = biological target: T1, human DR3 (full length, on cells); experiment: flow cytometry on CD3/CD28-stimulated human CD4+ T cells
Experimental: Human CD4-positive T cells were purified from Buffy coats using CD4 Rosettesep (Stem cell technologies) and Histopaque (Sigma). T cells were stimulated with CD3/CD28 Dynabeads (Invitrogen) at a 1:1 ratio for 4 days in T75 flask at 2 mio CD4 T cells/ml in RPMI supplemented with 10% fcs. Beads were removed using a magnet, and cells were washed twice before titrating in antibodies on 500.000 cells/staining. Binding saturation was measured after incubation with goat-anti-mouse phycoerythrin (Jackson ImmunoResearch) and cells were subsequently analysed by flow cytometry on a BD LSRII. All antibodies reached saturation at 3 μg/ml.

[6] = biological target: T1, human DR3 (full length, on cells); experiment: cell-based or functional assay; remark: listed apart in the source
[7] = biological target: T1, human DR3 (full length, on cells); experiment: cell-based or functional assay; remark: listed apart in the source
[8] = biological target: T1, human DR3 (full length, on cells); experiment: cell-based or functional assay; remark: listed apart in the source

| fold response, DR3 reporter, 40 ng/ml TL1A + 0.1 microg/ml [1] | fold response, DR3 reporter, 40 ng/ml TL1A + 1 microg/ml [1] | fold response, DR3 reporter, 40 ng/ml TL1A + 10 microg/ml [1] | fold response, DR3 reporter, 40 ng/ml TL1A + 100 microg/ml [1] | fold response, DR3 reporter, no TL1A, 0.1 microg/ml [1] | MFI [2] | MFI [3] | IFN-γ, TL1A-costimulated lymphocytes, Fab 0.003 µg/mL [6] | IFN-γ, TL1A-costimulated lymphocytes, Fab 0.01 µg/mL [6] | IFN-γ, TL1A-costimulated lymphocytes, Fab 0.03 µg/mL [6] | IFN-γ, TL1A-costimulated lymphocytes, Fab 0.1 µg/mL [6] | IFN-γ, TL1A-costimulated lymphocytes, Fab 0.3 µg/mL [6] | IFN-γ, TL1A-costimulated lymphocytes, Fab 1.0 µg/mL [6] | IFN-γ, TL1A-costimulated RA SF cells, Fab 0.003 µg/mL [7] | IFN-γ, TL1A-costimulated RA SF cells, Fab 0.01 µg/mL [7] | IFN-γ, TL1A-costimulated RA SF cells, Fab 0.03 µg/mL [7] | IFN-γ, TL1A-costimulated RA SF cells, Fab 0.1 µg/mL [7] | IFN-γ, TL1A-costimulated RA SF cells, Fab 0.3 µg/mL [7] | IFN-γ, TL1A-costimulated RA SF cells, Fab 1 µg/mL [7] | IC100 of inhibition of IFN-γ secretion, TL1A-costimulated RA synovial fluid cells [8] | Binder | also measured |
| --- | --- | --- | --- | --- | --- | --- | --- | --- | --- | --- | --- | --- | --- | --- | --- | --- | --- | --- | --- | --- | --- |
| 5.8 fold | 2.7 fold | 2.1 fold | 2.1 fold | 1 fold | 500 MFI | 500 MFI | – | – | – | – | – | – | – | – | – | – | – | – | – | 0087 (Fab from papain cleavage of mAb 0072) (Fab, V domains shown, murine IgG1 Fab by papain cleavage) VH: EVKLVESGGGLVKPGGSLKLSCSASGFAFSNYDMSWVRQTPEKRLEWVAAFSSDGYTFYPDSLKGRFTISRDNARNTLYLQMSSLGSEDTALYCCARHADYANYPVMDYWGQGTSVTVSS VL: DIVLAQSPASLLVSLGQRATISCRASKSVSTSGYSYMHWYQQKPGQPPKLLIYLASNLESGVPARFSGSGSGTDFTLNIHPVEEEDAATYYCQHSRELPLTFGAGTMLELKR | fold response, DR3 reporter, no TL1A, 1 microg/ml [1]: 1 fold; fold response, DR3 reporter, no TL1A, 10 microg/ml [1]: 1 fold; fold response, DR3 reporter, no TL1A, 100 microg/ml [1]: 1 fold |
| – | – | – | – | – | – | – | 140 ng/mL | 105 ng/mL | 69 ng/mL | 52 ng/mL | 62 ng/mL | 40 ng/mL | 1870 pg/mL | 1380 pg/mL | 1220 pg/mL | 1140 pg/mL | 1160 pg/mL | 1230 pg/mL | ~0.1 µg/mL | 0171 (humanized IgG1 Fab of 0072 without back mutations) (Fab, V domains shown) VH: EVQLVESGGGLVQPGGSLRLSCAASGFTFSNYDMSWVRQATGKGLEWVSAFSSDGYTFYPGSVKGRFTISRENAKNSLYLQMNSLRAGDTAVYYCARHADYANYPVMDYWGQGTLVTVSS VL: DIQMTQSPSSLSASVGDRVTITCRASKSVSTSGYSYMHWYQQKPGKAPKLLIYLASNLESGVPSRFSGSGSGTDFTLTISSLQPEDFATYYCQHSRELPLTFGGGTKVEIK | – |

The remaining lines, values behind:

| Binder | fold response, DR3 reporter, 40 ng/ml TL1A + 0.1 microg/ml [1] | fold response, DR3 reporter, 40 ng/ml TL1A + 1 microg/ml [1] | fold response, DR3 reporter, 40 ng/ml TL1A + 10 microg/ml [1] | fold response, DR3 reporter, 40 ng/ml TL1A + 100 microg/ml [1] | fold response, DR3 reporter, no TL1A, 0.1 microg/ml [1] | MFI [2] | MFI [3] | IFN-γ, TL1A-costimulated lymphocytes, Fab 0.003 µg/mL [6] | IFN-γ, TL1A-costimulated lymphocytes, Fab 0.01 µg/mL [6] | IFN-γ, TL1A-costimulated lymphocytes, Fab 0.03 µg/mL [6] | IFN-γ, TL1A-costimulated lymphocytes, Fab 0.1 µg/mL [6] | IFN-γ, TL1A-costimulated lymphocytes, Fab 0.3 µg/mL [6] | IFN-γ, TL1A-costimulated lymphocytes, Fab 1.0 µg/mL [6] | IFN-γ, TL1A-costimulated RA SF cells, Fab 0.003 µg/mL [7] | IFN-γ, TL1A-costimulated RA SF cells, Fab 0.01 µg/mL [7] | IFN-γ, TL1A-costimulated RA SF cells, Fab 0.03 µg/mL [7] | IFN-γ, TL1A-costimulated RA SF cells, Fab 0.1 µg/mL [7] | IFN-γ, TL1A-costimulated RA SF cells, Fab 0.3 µg/mL [7] | IFN-γ, TL1A-costimulated RA SF cells, Fab 1 µg/mL [7] | IC100 of inhibition of IFN-γ secretion, TL1A-costimulated RA synovial fluid cells [8] | also measured |
| --- | --- | --- | --- | --- | --- | --- | --- | --- | --- | --- | --- | --- | --- | --- | --- | --- | --- | --- | --- | --- | --- |
| 0073 (murine mAb purified from hybridoma 28F26A3) (antibody, V domains shown, murine IgG2a, kappa; also called 0085) VH: EVKVVESGGGLVKPGGSLKLSCAASGFVFSSYDMSWVRQIPEKRLEWVAAISSGDYYTYYPDSVKGRFTISRDDARNTLYLQMSSLRSEDTALYYCARHRGGNYPQYAMDYWGQGTSVTVSS VL: DILLTQSPASFAVSLGQRATISCRASKSVSTSGYNYIHWYQQKPGQPPKLLIYLTSNLESGVPARFSGSGSGTDFTLNIHPVEEEDAATYYCQHSRELPFTFGSGTKLEIKR | – | – | – | – | – | 1300 MFI | 1300 MFI | – | – | – | – | – | – | – | – | – | – | – | – | – | fold response, DR3 reporter, 40 ng/ml TL1A + 0.1 microg/ml [4]: 24.2 fold; fold response, DR3 reporter, 40 ng/ml TL1A + 1 microg/ml [4]: 27.9 fold; fold response, DR3 reporter, 40 ng/ml TL1A + 10 microg/ml [4]: 25.5 fold; fold response, DR3 reporter, 40 ng/ml TL1A + 100 microg/ml [4]: 19 fold; fold response, DR3 reporter, no TL1A, 0.1 microg/ml [4]: 12.8 fold; fold response, DR3 reporter, no TL1A, 1 microg/ml [4]: 14.4 fold; fold response, DR3 reporter, no TL1A, 10 microg/ml [4]: 12.8 fold; fold response, DR3 reporter, no TL1A, 100 microg/ml [4]: 6.9 fold; Median Fluorescent Intensity [5]: 2840; Staining index (MFI Ab/MFI Isotype) [5]: 12.8; saturation concentration [5]: 3 µg/mL |
| 0088 (Fab from papain cleavage of mAb 0073) (Fab, V domains shown, murine IgG2a Fab by papain cleavage) VH: EVKVVESGGGLVKPGGSLKLSCAASGFVFSSYDMSWVRQIPEKRLEWVAAISSGDYYTYYPDSVKGRFTISRDDARNTLYLQMSSLRSEDTALYYCARHRGGNYPQYAMDYWGQGTSVTVSS VL: DILLTQSPASFAVSLGQRATISCRASKSVSTSGYNYIHWYQQKPGQPPKLLIYLTSNLESGVPARFSGSGSGTDFTLNIHPVEEEDAATYYCQHSRELPFTFGSGTKLEIKR | 15.2 fold | 6.3 fold | 2.9 fold | 2.8 fold | 1.1 fold | 500 MFI | 500 MFI | – | – | – | – | – | – | – | – | – | – | – | – | – | fold response, DR3 reporter, no TL1A, 1 microg/ml [1]: 1.1 fold; fold response, DR3 reporter, no TL1A, 10 microg/ml [1]: 1.1 fold; fold response, DR3 reporter, no TL1A, 100 microg/ml [1]: 1 fold |
| 0170 (humanized IgG1 Fab of 0072; HC T28A S49A Y91; LC Q3A T5A S60A M4) (Fab, V domains shown) VH: EVQLVESGGGLVQPGGSLRLSCAASGFTFSNYDMSWVRQAAGKGLEWVSAFSSDGYTFYPGAVKGRFTISRENAKNSLYLQMNSLRAGDTAVYYCARHADYANYPVMDYWGQGTLVTVSS VL: DIAMAQSPSSLSASVGDRVTITCRASKSVSTSGYSYMHWYQQKPGKAPKLLIYLASNLEAGVPSRFSGSGSGTDFTLTISSLQPEDFATYYCQHSRELPLTFGGGTKVEIK | – | – | – | – | – | – | – | 131 ng/mL | 101 ng/mL | 108 ng/mL | 46 ng/mL | 51 ng/mL | 63 ng/mL | 1790 pg/mL | 1640 pg/mL | 1360 pg/mL | 1170 pg/mL | 1300 pg/mL | 1250 pg/mL | ~0.1 µg/mL | – |
| 0173 (humanized IgG1 Fab of 0072; HC T28A S49A Y91S; LC Q3A T5A S60A M4L) (Fab, V domains shown) VH: EVQLVESGGGLVQPGGSLRLSCAASGFTFSNYDMSWVRQAAGKGLEWVSAFSSDGYTFYPGAVKGRFTISRENAKNSLYLQMNSLRAGDTAVYYCARHADYANSPVMDYWGQGTLVTVSS VL: DIALAQSPSSLSASVGDRVTITCRASKSVSTSGYSYMHWYQQKPGKAPKLLIYLASNLEAGVPSRFSGSGSGTDFTLTISSLQPEDFATYYCQHSRELPLTFGGGTKVEIK | – | – | – | – | – | – | – | 160 ng/mL | 163 ng/mL | 95 ng/mL | 69 ng/mL | 62 ng/mL | 48 ng/mL | 1550 pg/mL | 1230 pg/mL | 1130 pg/mL | 1130 pg/mL | 992 pg/mL | 1060 pg/mL | ~0.1 µg/mL | – |
